In PMC3738525:
Values joined by “and” are separate entries in the source; they are usually repeats but may differ in a detail not shown here. Identical values can stand only once.

Key:
[1] = target: recombinant (His)6-tagged human cofilin (human) (UniProt P23528); experiment: cross-linking; recombinant His-cofilin 10 µM to 40 µM in PBS pH 7.2, BMOE (two fold molar excess) or DMSO, one hour at room temperature; SDS-PAGE, Coomassie blue; oligomers only at >10 µM
[2] = target: recombinant (His)6-tagged human cofilin (human) (UniProt P23528); experiment: cross-linking; phosphorylated (by GST-LIMK2) and unphosphorylated His-cofilin (16 μg) cross-linked with 2 and 20 mM BMOE
[3] = target: endogenous cofilin (human (endogenous in platelets and HUVEC)) (UniProt P23528); experiment: cross-linking; intact endothelial cells (HUVEC, also transfected) in suspension, BMOE or BMH 1 mM or DMSO, 37 °C, one hour; Laemmli lysis, SDS-PAGE, immunoblot
[4] = target: endogenous cofilin (human (endogenous in platelets and HUVEC)) (UniProt P23528); experiment: cross-linking; human washed platelets (resting, or stimulated with thrombin, with or without Y27632) lysed in NP-40 lysis buffer with BMOE or BMH (0.2 mM; 0.1 mM BMOE in Figure 7), 20 minutes on ice; immunoblot

Substance | stoichiometry N [1] | stoichiometry N [2] | stoichiometry N [3] | stoichiometry N [4]
recombinant (His)6-tagged human cofilin (from UniProt P23528 1-166) (natural protein) | 2 and 4 and 5 | 2 and 3 |  | 
endogenous cofilin (from UniProt P23528 1-166) (natural protein) |  |  | 4 | 4
